Measured values published in patent publication US7132274B2, “Method for identifying modulators of CLK-1 and UbiF activity” (priority 2003, dated 2006).

System: E. coli JF496 (ubiF411)
Assay: JF496 complementation (growth rescue) assay
Type: cell-based
Conditions: for rescue of bacterial growth under selective condition: compared with vector pET16 control; for Activity in JF496 system: C. elegans CLK-1 variants expressed in JF496, growth rate relative to wild type CLK-1
Source text: JF496 is useful for complementation assays using eukaryotic clk-1. As with all other ubi mutants, JF496 has a weak growth in liquid culture, and cannot use succinate as a unique carbon source. These characteristics were used to develop a gain-of-function assay, where JF496 was transformed with a eukaryotic clk-1 (here from C. elegans) and then wild-type growth was identified. Transgenic E. coli ubiF (Kwon et al., 2000 FEMS Microbiol Lett, 186, 157–161), and clk-1 from proteobacteria (Stenmark et al., 2001 J Biol Chem, 276, 33297–33300) have been tested in JF496.
Growth conditions—For complementation assays, plasmids are freshly transformed by electroporation into E. coli JF496 ubiF(DE3) and grown overnight at 37° C. in 5 mL LB with 50 μg/mL ampicillin. The cultures are diluted 1/10 and OD600 measured. A bacterial volume corresponding to an OD600 of 0.03 in 5 mL is taken, centrifuged and resuspended in 100 μl of M9 medium. It is then added into 5 mL M9 containing 1 mM MgSO4, 20 μM CaCl2, 0.5 μg/mL thiamine, 0.12% casamino acids, 40 μg/mL D-L-methionine, 100 μg/mL L-asparagine, trace metals and 50 μg/mL ampicillin. This medium is supplemented with 0.5% glucose or 0.5% succinate. E. coli JF496 is grown at 37° C. for 8 hours. Samples (700-μL) are taken at 2-hour intervals and the OD600 is measured in order to determine the growth rate.
Growth conditions—as described above in Section 6.1
A selection of CLK-1 variants were constructed by site-directed mutagenesis and cloned into the JF496 system to assess their enzymatic activity relative to the wild type. The respective strains of JF496-clk-1 variants were cultured as described and the growth rate of each were measured. The results as shown in Table 4 indicate that certain residues and regions are not tolerant of amino acid substitution (amino acid substitution is indicated by one-letter codes).

[1] = JF496, M9 buffer containing 0.5% glucose

Row | Molecule | rescue of bacterial growth under selective condition [1] | Activity in JF496 system | also measured
1 | hclk-1: human clk-1 cDNA expressed in JF496 (protein, listed as Homo sapiens, Human CLK-1, human clk-1 cDNA expressed in JF496) MSCAGAAAAPRLWRLRPGARRSLSAYGRRTSVRFRSSGMTLDNISRAAVDRIIRVDHAGEYGANRIYAGQMAVLGRTSVGPVIQKMWDQEKDHLKKFNELMVTFRVRPTVLMPLWNVLGFALGAGTALLGKEGAMACTVAVEESIAHHYNNQIRTLMEEDPEKYEELLQLIKKFRDEELEHHDIGLDHDAELAPAYAVLKSIIQAGCRVAIYLSERL | rescues bacterial growth |  | rescuing capacity [1]: lower than that of mclk-1 or C. elegans clk-1
2 | CDB 717: C. elegans CLK-1 variant, mutation Y119A (protein, UniProt P48376 9-187, looked up, variant Y119A) NADPH-dependent …: AHTAASRQALIEKIIRVDHAGELGADRIYAGQLAVLQGSSVGSVIKKMWDEEKEHLDTMERLAAKHNVPHTVFSPVFSVAAYALGVGSALLGKEGAMACTIAVEELIGQHANDQLKELLADDPETHKELLKILTRLRDEELHHHDTGVEHDGMKAPAYSALKWIIQTGCKGAIAIAEKI |  | Inactive | 
3 | CDB 707: C. elegans CLK-1 variant, mutation E147A (protein, UniProt P48376 9-187, looked up, variant E147A) NADPH-dependent …: AHTAASRQALIEKIIRVDHAGELGADRIYAGQLAVLQGSSVGSVIKKMWDEEKEHLDTMERLAAKHNVPHTVFSPVFSVAAYALGVGSALLGKEGAMACTIAVEELIGQHYNDQLKELLADDPETHKELLKILTRLRDAELHHHDTGVEHDGMKAPAYSALKWIIQTGCKGAIAIAEKI |  | Active | 
4 | CDB 691: C. elegans CLK-1 variant, mutation E147K (protein, UniProt P48376 9-187, looked up, variant E147K) NADPH-dependent …: AHTAASRQALIEKIIRVDHAGELGADRIYAGQLAVLQGSSVGSVIKKMWDEEKEHLDTMERLAAKHNVPHTVFSPVFSVAAYALGVGSALLGKEGAMACTIAVEELIGQHYNDQLKELLADDPETHKELLKILTRLRDKELHHHDTGVEHDGMKAPAYSALKWIIQTGCKGAIAIAEKI |  | Active | 
5 | C. elegans clk-1: wild-type C. elegans CLK-1 (DMQ hydroxylase) expressed from pET16 in JF496 (protein, C. elegans; C. elegans CLK-1, wild-type C. elegans CLK-1 (DMQ hydroxylase) expressed from pET16 in JF496) MFRVITRGAHTAASRQALIEKIIRVDHAGELGADRIYAGQLAVLQGSSVGSVIKKMWDEEKEHLDTMERLAAKHNVPHTVFSPVFSVAAYALGVGSALLGKEGAMACTIAVEELIGQHYNDQLKELLADDPETHKELLKILTRLRDEELHHHDTGVEHDGMKAPAYSALKWIIQTGCKGAIAIAEKI |  |  | rescue of JF496 growth defect (FIG. 6, JF496 transformed with C. elegans clk-1): able to rescue the JF496 growth defect
6 | mclk-1: mouse clk-1 cDNA expressed in JF496 (protein, listed as Mus musculus, Mouse CLK-1, mouse clk-1 cDNA expressed in JF496) MSAAGAIAAASVGRLRTGVRRPFSEYGRGLIIRCHSSGMTLDNINRAAVDRIIRVDHAGEYGANRIYAGQMAVLGRTSVGPVIQKMWDQEKNHLKKFNELMIAFRVRPTVLMPLWNVAGFALGAGTALLGKEGAMACTVAVEESIANHYNNQIRMLMEEDPEKYEELLQVIKQFRDEELEHHDTGLDHDAELAPAYALLKRIIQAGCSAAIYLSERF | rescues bacterial growth |  | 
7 | E. coli UbiF: E. coli UbiF expressed from a plasmid in JF496 (protein, E. coli; ubiF wildtype allele, E. coli UbiF expressed from a plasmid in JF496) MTNQPTEIAIVGGGMVGGALALGLAQHGFAVTVIEHAEPAPFVADSQPDVRISAISAASVSLLKGLGVWDAVQAMRCHPYRRLETWEWETAHVVFDAAELKLPLLGYMVENTVLQQALWQALEAHPKVTLRVPGSLIALHRHDDLQELELKGGEVIRAKLVIGADGANSQVRQMAGIGVHAWQYAQSCMLISVQCENDPGDSTWQQFTPDGPRAFLPLFDNWASLVWYDSPARIRQLQNMNMAQLQAEIAKHFPSRLGYVTPLAAGAFPLTRRHALQYVQPGLALVGDAAHTIHPLAGQGVNLGYRDVDALIDVLVNARSYGEAWASYPVLKRYQMRRMADNFIMQSGMDLFYAGFSNNLPPLRFMRNLGLMAAERAGVLKRQALKYALGL | rescued bacterial growth |  | 
